From patent US5668264

Biological target: PDGF AB (Homo sapiens) (UniProt P04085+P01127)
Assay: filter
Settings: 2'-F on all C and U; random starting pool

Chain of PDGF AB (Homo sapiens) (P01127 82-190, chain 2 of 2, other chains not shown): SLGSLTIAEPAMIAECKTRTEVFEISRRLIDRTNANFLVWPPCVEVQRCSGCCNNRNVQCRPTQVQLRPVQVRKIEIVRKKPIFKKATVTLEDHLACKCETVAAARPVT

Sequence: GGGAGACAAGAAUAACGCUCAANNNNNNNNNNNNNNNNNNNNNNNNNNNNNNNNNNNNNNNNNNNNNNNNNNUUCGACAGGAGGCUCACAACAGGC [random 2'-F pyrimidine RNA pool (50N)]
- Kd: 0.035 µM
